Three substances from patent publication US20190070251A1 can be followed below.

One may read the Kd as the free concentration of one partner at which half of the binding sites on the other are occupied at equilibrium, for simple one-to-one binding.

The target in assay [1] is GPR54 G-Protein coupled receptor (cloned human GPR54) (human) (UniProt Q969F8). Briefly: cell-based or functional assay.
The target in assay [2] is human δ opioid receptor (human) (UniProt P41143). Briefly: Kd of the radioligand, previously determined under these assay conditions; membranes of CHO-K1 cells with recombinant human δ opioid receptor (biphalin series).
human δ opioid receptor (human), sequence (P41143 whole entry, stated change not applied): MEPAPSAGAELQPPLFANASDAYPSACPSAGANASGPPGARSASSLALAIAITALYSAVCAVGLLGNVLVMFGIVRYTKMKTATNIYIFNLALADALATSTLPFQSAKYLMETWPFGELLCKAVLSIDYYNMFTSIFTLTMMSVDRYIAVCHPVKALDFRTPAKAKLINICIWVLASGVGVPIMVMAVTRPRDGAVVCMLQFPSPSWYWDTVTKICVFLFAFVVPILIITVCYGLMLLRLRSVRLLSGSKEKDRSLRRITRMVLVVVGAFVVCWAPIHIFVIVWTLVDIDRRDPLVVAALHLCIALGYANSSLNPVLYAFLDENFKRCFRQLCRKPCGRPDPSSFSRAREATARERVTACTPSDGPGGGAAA
Assay [3] shares this target. Briefly: Kd of the radioligand, previously determined under these assay conditions; membranes of CHO-K1 cells with recombinant human δ opioid receptor (OGF series).

As for Kisspeptin-10 (peptide), in assay [1], the EC50 (nM) of agonist activation at GPR54 (FLIPR calcium flux) is 10 nM and the Fold change compared to metastin came out at 1 fold. For [3H] DPDPE (peptide), the Kd in assay [2] is 3.9 nM; in assay [3] it was 3 nM. In assay [1], “mono-[mPEG-SBC-30K]-[Kisspeptin-10] (peptide)” returned an EC50 (nM) of agonist activation at GPR54; time of release 2 h of 200 nM.
